# Numbering of substitutions follows the chain as printed.
# B1: BIIB-9-440 (antibody, V domains shown)
# VH: QLQLQESGPGLVKPSETLSLTCTVSGGSISSSDYYWGWIRQPPGKGLEWIGSIYYSGSTYYNPSLKSRVTISVDTSKNQFSLKLSSVTAADTAVYYCARSPRHKVRGPNWFDPWGQGTLVTVSS
# VL: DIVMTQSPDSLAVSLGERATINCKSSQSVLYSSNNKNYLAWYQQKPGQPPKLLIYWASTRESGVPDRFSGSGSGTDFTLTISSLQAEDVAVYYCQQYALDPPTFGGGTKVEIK
# B2: BIIB-9-439 (antibody, V domains shown)
# VH: QVQLVQSGAEVKKPGASVKVSCKASGYTFTSYYMHWVRQAPGQGLEWMGIINPSGGSTTYAQKFQGRVTMTRDTSTSTVYMELSSLRSEDTAVYYCAREATESYYYMDVWGKGTTVTVSS
# VL: EIVMTQSPATLSLSPGERATLSCRASQSVSSYLAWYQQKPGQAPRLLIYDSSNRATGIPARFSGSGSGTDFTLTISSLEPEDFAVYYCQQRDNWPFTFGGGTKVEIK
# B3: BIIB-9-445 (antibody, V domains shown)
# VH: QVQLVQSGAEVKKPGASVKVSCKASGYTFTSYYIHWVRQAPGQGLEWMGIINPSGGSTSYAQKFQGRVTMTRDTSTSTVYMELSSLRSEDTAVYYCARDVGQDYWFDLWGRGTLVTVSS
# VL: B2 VL with L13V, Y32N, D50S, S51A, N53T, D70E, E79Q, P80S, R91Y, W94F
# B4: BIIB-9-888 (antibody, V domains shown)
# VH: QVQLVQSGAEVKKPGASVKVSCKASGYTFTSYYMHWVRQAPGQGLEWMGIINPSGGSTSYAQKFQGRVTMTRDTSTSTVYMELSSLRSEDTAVYYCARGPTDSSGYLDMDVWGKGTTVTVSS
# VL: B2 VL with L13V, Y32N, D50G, S51A, N53T, D70E, E79Q, R91A, D92F, F96P
# B5: BIIB-9-1267 (antibody, V domains shown)
# VH: B2 VH with T59S, E99D, A100H, T101G, E102W, S103A, Y104I, Y106G, K112Q
# VL: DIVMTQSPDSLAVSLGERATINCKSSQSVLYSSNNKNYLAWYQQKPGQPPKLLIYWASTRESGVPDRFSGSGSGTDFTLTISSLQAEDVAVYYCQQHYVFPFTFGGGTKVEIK
# B6: BIIB-9-461 (antibody, V domains shown)
# VH: B4 VH
# VL: EIVMTQSPATLSVSPGERATLSCRASQSVSSSLAWYQQKPGQAPRLLIYGASTRATGIPARFSGSGSGTEFTLTISSLQSEDFAVYYCQQHHHWPPTFGGGTKVEIK
# B7: BIIB-9-1278 (antibody, V domains shown)
# VH: QVQLVQSGAEVKKPGASVKVSCKASGYTFTSYYMVWVRQAPGQGLEWMGIINPSGGSTSYAQKFQGRVTMTRDTSTSTVYMELSSLRSEDTAVYYCARGPGELGYYLAFDIWGQGTMVTVSS
# VL: B6 VL with S32N, H92A, H93N, W94F
# B8: BIIB-9-1281 (antibody, V domains shown)
# VH: QVQLQQWGAGLLKPSETLSLTCAVYGGSFSGYYWSWIRQPPGKGLEWIGEIDHSGSTNYNPSLKSRVTISVDTSKNQFSLKLSSVTAADTAVYYCARTTRSKYYGMDVWGQGTMVTVSS
# VL: DIQMTQSPSTLSASVGDRVTITCRASQSISSWLAWYQQKPGKAPKLLIYKASSLESGVPSRFSGSGSGTDFTLTISSLQPEDFATYYCQQAISLPITFGGGTKVEIK
# B9: BIIB-9-605 (antibody, V domains shown)
# VH: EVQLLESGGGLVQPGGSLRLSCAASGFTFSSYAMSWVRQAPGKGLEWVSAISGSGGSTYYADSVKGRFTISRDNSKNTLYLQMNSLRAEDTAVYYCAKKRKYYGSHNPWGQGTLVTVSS
# VL: B8 VL with T10S, L11V, S28G, K50A, E55Q, I92D, S93V, L94F, I96F
# B10: BIIB-9-887 (antibody, V domains shown)
# VH: QVQLVQSGAEVKKPGASVKVSCKASGYTFTSYYMVWVRQAPGQGLEWMGIINPSGGSTSYAQKFQGRVTMTRDTSTSTVYMELSSLRSEDTAVYYCARDAEAHWIPGMDVWGQGTTVTVSS
# VL: B8 VL with T10S, L11V, S28G, K50A, E55Q, I92S, L94F, I96F
# B11: BIIB-9-607 (antibody, V domains shown)
# VH: QLQLQESGPGLVKPSETLSLTCTVSGGSISSSSYYWGWIRQPPGKGLEWIGSISYSGSTYYNPSLKSRVTISVDTSKNQFSLKLSSVTAADTAVYYCARDRGYSYEDFDLWGRGTLVTVS
# VL: B8 VL with D70E, E81D, I92G, S93R, L94Y, I96L
# B12: BIIB-9-479 (antibody, V domains shown)
# VH: QVQLQESGPGLVKPSETLSLTCTVSGGSISSYYWSWIRQPPGKGLEWIGSIYYSGSTNYNPSLKSRVTISVDTSKNQFSLKLSSVTAADTAVYYCAREHYGDYPLFDIWGQGTMVTVSS
# VL: B8 VL with D70E, E81D, A91Y, I92R, S93I, P95S, I96P
# B13: BIIB-9-581 (antibody, V domains shown)
# VH: QVQLVQSGAEVKKPGASVKVSCKASGYTFTSYYMHWVRQAPGQGLEWMGIINPSGGSTSYAQKFQGRVTMTRDTSTSTVYMELSSLRSEDTAVYYCARDPLYYREGYVFDYWGQGTLVTVSS
# VL: B8 VL with T10S, W32Y, A34N, K50A, E55Q, A91S, I92D, S93L, L94F, I96F
# B14: BIIB-9-621 (antibody, V domains shown)
# VH: QLQLQESGPGLVKPSETLSLTCTVSGGSISSSSYYWGWIRQPPGKGLEWIGSIYYSGSTYYNPSLKSRVTISVDTSKNQFSLKLSSVTAADTAVYYCARDGSISGSRFDYWGQGTLVTVSS
# VL: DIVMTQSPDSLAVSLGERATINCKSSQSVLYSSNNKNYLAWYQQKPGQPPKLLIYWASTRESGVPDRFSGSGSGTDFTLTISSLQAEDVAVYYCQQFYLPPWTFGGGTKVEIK
# B15: BIIB-9-573 (antibody, V domains shown)
# VH: QLQLQESGPGLVKPSETLSLTCTVSGGSISSSSYYWGWIRQPPGKGLEWIGSIYYSGSTYYNPSLKSRVTISVDTSKNQFSLKLSSVTAADTAVYYCARESKTKGYLDLWGRGTLVTVSS
# VL: EIVLTQSPGTLSLSPGERATLSCRASQSVSSSFLAWYQQKPGQAPRLLIYGASSRATGIPDRFSGSGSGTDFTLTISRLEPEDFAVYYCQQSHSPPYTFGGGTKVEIK
# B16: BIIB-9-1264 (antibody, V domains shown)
# VH: QVQLVQSGAEVKKPGASVKVSCKASGYTFTSYYMHWVRQAPGQGLEWMGIINPSGGSTSYAQKFQGRVTMTRDTSTSTVYMELSSLRSEDTAVYYCARDGDSSVYAFDYWGQGTLVTVSS
# VL: DIQMTQSPSSLSASVGDRVTITCQASQDITNYLNWYQQKPGKAPKLLIYDASNLETGVPSRFSGSGSGTDFTFTISSLQPEDIATYYCQQVDDYPFTFGGGTKVEIK
# B17: BIIB-9-883 (antibody, V domains shown)
# VH: B3 VH with I34M, V100G, G101R, Q102L, D103S, W105T, F106W, L108R, R111Q
# VL: B16 VL with V91A, D93H, Y94F
# B18: BIIB-9-569 (antibody, V domains shown)
# VH: QVQLVQSGAEVKKPGASVKVSCKASGYTFTSYYMHWVRQAPGQGLEWMGIINPSGGSTSYAQKFQGRVTMTRDTSTSTVYMELSSLRSEDTAVYYCARDGSGYSPYSFDPWGQGTLVTVSS
# VL: B16 VL with T30S, E55A, V91A, Y94F
# Biological target: free FIXa (activated Factor IX) (UniProt P00740 47-191; P00740 227-461)
# Assay: BLI
row,Kd [nM],Binder
1,39.9,B1
2,15.6,B2
3,20.2,B3
4,65.6,B4
5,15.6,B5
6,43.1,B6
7,66.2,B7
8,16.8,B8
9,8.63,B9
10,6.1,B10
11,6.57,B11
12,58.3,B12
13,12.9,B13
14,16.7,B14
15,8.58,B15
16,14.9,B16
17,17.5,B17
18,7.05,B18
